In assay [1] the target is T1, TRAIL-Receptor 1-Fc (UniProt O00220 109-239, limits assumed).
T1 construct: Bought from R&D Systems; also called TRAILR1; not shown: Fc part of the bought fusion protein
The assay can be described thus: Streptactin-ELISA, supernatant immobilized, constant concentration of TRAIL-Receptor 1-Fc (FIG. 14A). As for the experimental part: (§1) To determine the binding of receptors to constructed ligands, streptactin-coated 96-well microplates were used. Therefore, supernatants from transiently transfected HEK293 cells, mouse sera or purified proteins were immobilized on streptactin-plates (IBA GmbH) for 1-3 hours in PBS. Samples were diluted in ELISA binding/blocking buffer (PBS, 0.1% Tween-20, 20% SuperBlock T20-PBS (Pierce)). Plates were washed with PBS+0.1% Tween-20 and incubated with mouse-anti-TRAIL antibody (Pharmingen, clone RIK-2), TRAIL-Receptor 1-Fc (R&D Systems), TRAIL-Receptor 2-Fc (R&D Systems), TACI-Fc (R&D Systems) or HVEM-Fc (R&D Systems) for one hour at room temperature. Plates were again washed and Fc-proteins were detected with anti-human- or anti-mouse-Fc-specific peroxidase-conjugated antibodies (Sigma). Colour reaction was done by addition of 100 μl per well of TMB substrate (Kem-En-Tec Diagnostics) and the absorbance at 450 nm and 630 nm was determined with an ELISA reader after addition of 25 μl of 25% H₂SO₄ as stop-solution. Values were calculated as 450 nm-630 nm with MS Excel.
The selectivity of TRAIL-Receptor 1 or TRAIL-Receptor 2 towards fusion proteins of SPD/ccSPD and TRAIL, TRAILR1 mut and TRAILR2mut was shown by Streptactin-ELISA. Therefore, TRAIL-SPD-fusion proteins in supernatants from transiently transfected HEK293 cells were immobilized on Streptactin coated microplates. Cell supernatant from untransfected cells served as negative control. Specifically bound proteins were detected with constant (A, B) or varying (C, D) concentrations of either TRAIL-Receptor 1-Fc or TRAIL-Receptor 2-Fc. As shown in (A), the ligand TRAILR1 mut fused to SPD variants is deteced by TRAIL-Receptor 1, whereas the ligand TRAILR2mut is not. As shown in (B), the ligand TRAILR2mut is preferentially detected by TRAIL-Receptor 2, whereas TRAILR1 mut- and TRAIL wild-type constructs are equally well detected. As shown in C, TRAIL-Receptor 1-Fc bound to TRAIL-R1mut-ASPD and TRAIL-ASPD equally well over the whole receptor titration range, whereas TRAIL-R2mut-ASPD is not detected. As shown in D, TRAIL-Receptor 2-Fc bound to TRAIL-R2mut-ASPD and TRAIL-ASPD equally well over the receptor titration range analyzed, whereas the signal for TRAIL-R1mut-ASPD decreased rapidely with decreasing concentrations of receptor.
(In general: An ELISA detects its analyte on a solid surface through an enzyme-linked reagent.)

Assay [2] has as its target T1, TRAIL-Receptor 1-Fc. The assay can be described thus: Streptactin-ELISA, LIGHT-ASPD immobilized via Strep-tag II. As to the method: as §1
Varying concentrations (0-10 microgram/ml) of affinity and SEC purified, trimeric LIGHT-ASPD were used for immobilized via the Strep-tag II on Streptactin-coated microplates. LIGHT-ASPD was then detected in a ELISA set-up using 100 ng/ml of Fc-fusion proteins of the receptors HVEM and TRAIL-Receptor 1, respectively. […]

Here are results for five molecules from US20150126710A1 (APOGENIX, published 2015).

T1 sequence (O00220 109-239 limits assumed): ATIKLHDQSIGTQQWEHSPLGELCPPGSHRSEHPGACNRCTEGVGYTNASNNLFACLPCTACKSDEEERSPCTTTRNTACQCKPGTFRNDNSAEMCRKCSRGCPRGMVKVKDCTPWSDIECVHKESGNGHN

B1: TRAILR2mut-A-CCSPD (ligand)
chain: QRVAAHITGTRGRSNTLSSPNSKNEKALGRKINSWESSRSGHSFLSNLHLRNGELVIHEKGFYYIYSQTQFKFREEIKENTKNDKQMVQYIYKYTSYPDPILLMKSARNSCWSKDAEYGLYSIYQGGIFELKENDRIFVSVTNERLLQMDHEASFFGAFLVGSSGSSGSSGSGLPDVASLRQQVEALQGQVQHLQAAFSQYKKVELFPNGPSSSSSSAWSHPQFEK
notes: Used as HEK293 supernatant
With B1, the binding result in the assay with TRAIL-Receptor 1-Fc [1] is on record as “no binding”.

B2: TRAILR2mut-ASPD (ligand)
chain: QRVAAHITGTRGRSNTLSSPNSKNEKALGRKINSWESSRSGHSFLSNLHLRNGELVIHEKGFYYIYSQTQFKFREEIKENTKNDKQMVQYIYKYTSYPDPILLMKSARNSCWSKDAEYGLYSIYQGGIFELKENDRIFVSVTNERLLQMDHEASFFGAFLVGSSGSSGSSGSGLPDVASLRQQVEALQGQVQHLQAAFSQYKKVELFPNGQSVGEKIFKTAGFVKPFTEAQLLCTQAGGQLASPRSAAENAALQQLVVAKNEAAFLSMTDSKTEGKFTYPTGESLVYSNWAPGEPNDDGGSEDCVEIFTNGKWNDRACGEKRLVVCEFGGSPSSSSSSAWSHPQFEK
notes: TRAIL-Receptor 2 selective mutein of the human TRAIL-RBD, A-linker, neck + CRD of human SP-D, linker element and Strep-tag II; Signal peptide 1-20 left out; Homotrimer by SEC; also called Sp-TRAILR2mut-ASPD
For B2, the binding result with TRAIL-Receptor 1-Fc [1] is given as “no binding”.

B3: TRAILR2mut-D-SPD (ligand)
chain: QRVAAHITGTRGRSNTLSSPNSKNEKALGRKINSWESSRSGHSFLSNLHLRNGELVIHEKGFYYIYSQTQFKFREEIKENTKNDKQMVQYIYKYTSYPDPILLMKSARNSCWSKDAEYGLYSIYQGGIFELKENDRIFVSVTNERLLQMDHEASFFGAFLVGSGLPDVASLRQQVEALQGQVQHLQAAFSQYKKVELFPNGQSVGEKIFKTAGFVKPFTEAQLLCTQAGGQLASPRSAAENAALQQLVVAKNEAAFLSMTDSKTEGKFTYPTGESLVYSNWAPGEPNDDGGSEDCVEIFTNGKWNDRACGEKRLVVCEFGGSPSSSSSSAWSHPQFEK
notes: Used as HEK293 supernatant
As for B3, the binding result with TRAIL-Receptor 1-Fc [1] is “no binding”.

B4: TRAILR2mut-D-CCSPD (ligand)
chain: QRVAAHITGTRGRSNTLSSPNSKNEKALGRKINSWESSRSGHSFLSNLHLRNGELVIHEKGFYYIYSQTQFKFREEIKENTKNDKQMVQYIYKYTSYPDPILLMKSARNSCWSKDAEYGLYSIYQGGIFELKENDRIFVSVTNERLLQMDHEASFFGAFLVGSGLPDVASLRQQVEALQGQVQHLQAAFSQYKKVELFPNGPSSSSSSAWSHPQFEK
notes: Used as HEK293 supernatant
Take B4: in the assay with TRAIL-Receptor 1-Fc [1], the binding result is reported as “no binding”.

B5: LIGHT-ASPD (ligand)
chain: EVNPAAHLTGANSSLTGSGGPLLWETQLGLAFLRGLSYHDGALVVTKAGYYYIYSKVQLGGVGCPLGLASTITHGLYKRTPRYPEELELLVSQQSPCGRATSSSRVWWDSSFLGGVVHLEAGEEVVVRVLDERLVRLRDGTRSYFGAFMVGSSGSSGSSGSGLPDVASLRQQVEALQGQVQHLQAAFSQYKKVELFPNGQSVGEKIFKTAGFVKPFTEAQLLCTQAGGQLASPRSAAENAALQQLVVAKNEAAFLSMTDSKTEGKFTYPTGESLVYSNWAPGEPNDDGGSEDCVEIFTNGKWNDRACGEKRLVVCEFGGSPSSSSSSAWSHPQFEK
notes: Human LIGHT-RBD (Glu91-Val240), A-linker, neck + CRD of human SP-D, linker element and Strep-tag II; Signal peptide 1-20 left out; Trimer by SEC, glycosylated; also called Sp-LIGHT-ASPD
For the molecule B5, in the assay with TRAIL-Receptor 1-Fc [2], the binding result is given as “no binding”.
